Reference: US5985836A, “Alpha-1 proteinase inhibitor binding peptides” (Bayer Corporation, priority 1998, dated 1999)
Ends that are not written are not given here.

Columns and labels:
[1] = molecular target: T1, apolipoprotein alpha-1 (Apo A-1) (Homo sapiens, UniProt P02647); experiment: Purification from Effluent II+III, Apo A-1 mass balance; format: binding; settings: 1 ml Eff. II+III, 4° C.
T1 construct: Eff; II+III is a process intermediate in the Cohn plasma fractionation process; tissue Bayer Corporation (Clayton, N.C.); host or cells: plasma fraction: Cohn Effluent II+III
T1 sequence (P02647 19-267): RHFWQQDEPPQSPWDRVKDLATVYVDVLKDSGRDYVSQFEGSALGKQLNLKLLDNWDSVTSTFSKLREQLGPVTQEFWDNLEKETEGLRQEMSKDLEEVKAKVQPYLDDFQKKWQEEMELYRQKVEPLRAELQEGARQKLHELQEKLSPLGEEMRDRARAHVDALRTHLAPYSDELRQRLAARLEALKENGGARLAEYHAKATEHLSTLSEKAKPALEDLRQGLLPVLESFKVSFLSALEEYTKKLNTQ
Protocol: (§1) Sequences 1-11 and 15 were assayed with Effluent II+III (Eff. II+III). Eff. II+III is a process intermediate in the Cohn plasma fractionation process. The feed stream contains 20% (by volume) ethanol, 20-25 mg/ml hSA and approximately 1 mg/ml AlPI. The stream also contains other proteins including anti-thrombin III (AT3), immunoglobin G (IgG), immunoglobin A (IgA), apolipoprotein alpha-1 (Apo A-1), transferrin (Trf), haptoglobin (Hpt), and alpha-1 acid glycoprotein (AAG) at concentrations ranging from 0.1-1 mg/ml.
(§2) The columns were assayed using the same technique as the hSA+AlPI experiments, allowing for a 10 minute residence time followed by a constant flow rate of 865 μl/min with step elutions of 1M NaCl, 3M NaCl, and 2% acetic acid. All experiments were conducted at 4° C. The mass balances for the injection of 1 ml Eff. […] The AlPI was enriched from 3% of the total protein in the feed to upwards of 50% in the acid eluate.

A1PI [2] = molecular target: T2, A1PI (Homo sapiens, UniProt P01009); experiment: Purification of A1PI from Effluent II+III on peptide column, A1PI mass balance; format: binding; settings: A1PI, 1 ml Eff. II+III, 4° C.
T2 construct: Human plasma is currently the only approved source of therapeutic AlPI
T2 sequence (P01009 25-418): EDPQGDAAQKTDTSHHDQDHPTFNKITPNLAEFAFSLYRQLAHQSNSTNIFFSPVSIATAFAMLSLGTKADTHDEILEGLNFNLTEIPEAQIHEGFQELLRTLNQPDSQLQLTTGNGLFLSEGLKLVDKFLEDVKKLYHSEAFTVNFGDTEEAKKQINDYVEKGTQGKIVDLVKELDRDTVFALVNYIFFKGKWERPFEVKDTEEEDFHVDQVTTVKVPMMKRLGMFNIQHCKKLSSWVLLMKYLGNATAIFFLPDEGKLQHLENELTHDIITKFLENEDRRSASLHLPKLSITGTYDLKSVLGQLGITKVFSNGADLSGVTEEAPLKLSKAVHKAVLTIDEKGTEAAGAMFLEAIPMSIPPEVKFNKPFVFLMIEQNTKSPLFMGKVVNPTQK
Protocol: as §1, §2

A1PI [3] = molecular target: T2, A1PI; experiment: A1PI binding on peptide-resin column, injection of 1 mg A1PI in equilibration buffer; settings: 1 mg A1PI in equilibration buffer
Method in brief: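 Percent of total eluted A1PI per fraction (flowthrough, NaCl steps, 2% acetic acid) determined by A280 integration or immunonephelometry. Columns of peptide-derivatized A-Totda-Toyopearl resin (0.1 mmole/g) received 1 mg A1PI at 4 °C or 20 °C, flow 865 or 523 μl/min.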

A1PI [4] = molecular target: T2, A1PI; experiment: A1PI purification from 5 mg hSA + 1 mg A1PI on peptide column, A1PI mass balance; format: binding; settings: A1PI, 5 mg hSA + 1 mg A1PI, 4° C.
Protocol: Confirmatory binding assays were performed in a column chromatographic format on a microbore HPLC using individual peptide sequences synthesized directly onto the Toyopearl 650 M Chelate resin which had been modified with Totda followed by an alanine residue (A-Totda-Toyopearl), at a final substitution density of 0.1 mmole/g resin. The resin was packed into 0.4×5 cm columns (Thomson, Springfield, Va.) and tested on the Michrom HPLC system (Michrom BioResources, Auburn, Calif.). The elution program for all trials utilized the following method. The column was pre-equilibrated with equilibration buffer (as above). 1 ml of sample was injected and allowed sufficient time to flowthrough the column using equilibration buffer. The column was then washed with step elutions of 1M NaCl and 3M NaCl in equilibration buffer. The column was exposed to equilibration buffer with 0.1M NaCl. Any remaining protein was eluted with elution buffer (2% by volume glacial acetic acid in water).
A Gilson FC204 fraction collector at the HPLC outlet collected individual eluates for further analysis. Fractions collected from the 2% acetic acid eluates were neutralized with 2M Tris, pH 10.5 to bring the pH to neutrality. The protein samples were reconstituted in equilibration buffer unless otherwise stated. The samples were analyzed by the integration of the absorbance at 280 nm or by immunonephelometry. The specific method of determination is presented for each figure.
Columns were assayed with a mixture of 5 mg human serum albumin (hSA)+1 mg AlPI at 4° C. (Table 4, Seq. ID 1-11, 15, 17) and 20° C. (Table 5, Seq. ID 1-10, 13, 15, 17). The chromatography method was modified to provide for a 10 minute residence time of sample in the column by decreasing the flow to 17 μl/min (10 cm/hr) upon injection. Following the incubation, the flow was set at 865 μl/min (413 cm/hr) for the step elutions of 1M NaCl, 3M NaCl, and 2% acetic acid. The mass balances presented are based upon immunonephelometry. The Percent Eluted value is protein-specific and based on the amount of the protein eluted in a […]

Immunoglobulin A (IgA) = experiment: Purification from Effluent II+III, IgA mass balance; format: binding, human; settings: 1 ml Eff. II+III, 4° C.
Protocol: as §1, §2

Immunoglobulin G (IgG) = experiment: Purification from Effluent II+III, IgG mass balance; format: binding, human; settings: 1 ml Eff. II+III, 4° C.
Protocol: as §1, §2

[5] = * as in Tables 4, 5 (below detection limit)

Percent Eluted by Fraction, 1M NaCl [1]: 0%
Percent Eluted by Fraction, 2% Acetic Acid [1]: 0%
Percent Eluted by Fraction, 3M NaCl [1]: 0%
Percent Eluted by Fraction, Flow [1]: 0%
Percent Eluted by Fraction, 1M NaCl (A1PI [2]): 6%
Percent Eluted by Fraction, 2% Acetic Acid (A1PI [2]): 75%
Percent Eluted by Fraction, 3M NaCl (A1PI [2]): 0%
Percent Eluted by Fraction, Flow (A1PI [2]): 20%
Mass Protein per Eluate Fraction, 1M NaCl (A1PI [2]; [5]): 0.06 mg
Mass Protein per Eluate Fraction, 2% Acetic Acid (A1PI [2]; [5]): 0.80 mg
Mass Protein per Eluate Fraction, Flow (A1PI [2]; [5]): 0.21 mg
Percent A1PI Eluted by Fraction Based on Absorbance at 280 nm, 1M NaCl (A1PI [3]; 4° C.): 74%
Percent A1PI Eluted by Fraction Based on Absorbance at 280 nm, 2% Acetic Acid (A1PI [3]; 4° C.): 26%
Percent A1PI Eluted by Fraction Based on Absorbance at 280 nm, Flowthrough (A1PI [3]; 4° C.): 0%
Percent A1PI Eluted by Fraction, 1M NaCl (A1PI [3]; 20° C.): 0%
Percent A1PI Eluted by Fraction, 2% Acetic Acid (A1PI [3]; 20° C.): 4%
Percent A1PI Eluted by Fraction, Flowthrough (A1PI [3]; 20° C.): 96%
Mass Protein per Eluate Fraction, 1M NaCl (A1PI [4]; * Below detection limit): 0.35 mg
Mass Protein per Eluate Fraction, 2% Ac. Acid (A1PI [4]; * Below detection limit): 0.35 mg
Mass Protein per Eluate Fraction, Flow (A1PI [4]; * Below detection limit): 0.06 mg
Percent Eluted by Fraction, 1M NaCl (A1PI [4]; relative to total eluted): 46%
Percent Eluted by Fraction, 2% Ac. Acid (A1PI [4]; relative to total eluted): 46%
Percent Eluted by Fraction, 3M NaCl (A1PI [4]; relative to total eluted): 0%
Percent Eluted by Fraction, Flow (A1PI [4]; relative to total eluted): 7%
Substance: QYHFWY
Percent Eluted by Fraction, 1M NaCl (Immunoglobulin A (IgA)): 31%
Percent Eluted by Fraction, 2% Acetic Acid (Immunoglobulin A (IgA)): 38%
Percent Eluted by Fraction, 3M NaCl (Immunoglobulin A (IgA)): 0%
Percent Eluted by Fraction, Flow (Immunoglobulin A (IgA)): 31%
Mass Protein per Eluate Fraction, 1M NaCl (Immunoglobulin A (IgA); [5]): 0.11 mg
Mass Protein per Eluate Fraction, 2% Acetic Acid (Immunoglobulin A (IgA); [5]): 0.13 mg
Mass Protein per Eluate Fraction, Flow (Immunoglobulin A (IgA); [5]): 0.11 mg
Percent Eluted by Fraction, 1M NaCl (Immunoglobulin G (IgG)): 10%
Percent Eluted by Fraction, 2% Acetic Acid (Immunoglobulin G (IgG)): 0%
Percent Eluted by Fraction, 3M NaCl (Immunoglobulin G (IgG)): 0%
Percent Eluted by Fraction, Flow (Immunoglobulin G (IgG)): 90%
Mass Protein per Eluate Fraction, 1M NaCl (Immunoglobulin G (IgG); [5]): 0.02 mg
Mass Protein per Eluate Fraction, Flow (Immunoglobulin G (IgG); [5]): 0.21 mg
